The values below come from patent US20220127328A1 (FATE THERAPEUTICS, published 2022).

The target of the experiment is T1, NKG2C (transgenic, expressed on the surface of iPSC-derived NK cells) (Homo sapiens (Human), UniProt P26717 1-231).
T1 construct: After 2A cleavage a C-terminal 2A remnant may stay on the chain; also called transgenic NKG2C
Put plainly: FACS of surface NKG2C on iNK cells from the NKG2C only iPSC line; pairing inferred from surface expression. The source says:
After the engineering step, iPSCs were sorted for the desired phenotype. […] Engineered iPSCs were differentiated into CD34+ hematopoietic progenitor cells and subsequently differentiated into CD56+ NK cells (iNK cells) using a stepwise differentiation and expansion strategy. Surface NKG2C expression was low on unmodified iNK cells (about 5-10%) as determined by FACS.

T1 sequence (P26717 whole entry): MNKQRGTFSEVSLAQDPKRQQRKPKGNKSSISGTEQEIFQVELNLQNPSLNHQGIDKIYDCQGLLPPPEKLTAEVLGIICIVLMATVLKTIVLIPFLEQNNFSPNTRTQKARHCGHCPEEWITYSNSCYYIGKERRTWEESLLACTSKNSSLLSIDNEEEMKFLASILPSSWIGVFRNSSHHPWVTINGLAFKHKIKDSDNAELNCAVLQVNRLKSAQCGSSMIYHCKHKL

B1: endogenous DAP12 (other, human, UniProt O43914 22-113, looked up)
chain: LRPVQAQAQSDCSCSTVSPGVLAGIVMGDLVLTVLIALAVYFLGRLVPRGRGAAEAATRKQRITETESPYQELQGQRSDVYSDLNTQRPYYK
notes: whole, on cells
As to B1, the binding result is reported as “binds”.

B2: endogenous CD94 (receptor, human, UniProt Q13241 1-179, looked up)
chain: MAVFKTTLWRLISGTLGIICLSLMSTLGILLKNSFTKLSIEPAFTPGPNIELQKDSDCCSCQEKWVGYRCNCYFISSEQKTWNESRHLCASQKSSLLQLQNTDELDFMSSSQQFYWIGLSYSEEHTAWLWENGSALSQYLFPSFETFNTKNCIAYNPNGNALDESCEDKNRYICKQQLI
notes: whole, on cells
Turning to B2, the binding result is given as “binds”.
